Results published in patent US20250382353A1 (published 2025).

B1: 1C3 antigen-binding fragment (Fab) (Fab, V domains shown)
VH: QVQLLESGGGLVQPGRSLRLSCAASGFTFDDYAMHWVRQPPGKGLEWVSGSSWNSGSVVYADSVKGRFTISRDSAKNSLHLQMNSLRVEDTALYYCAKAVDPTRGSYSPDYGFDIWGQGTMVTVS
VL: not shown
B2: Fab 2A10 (antibody, V domains shown)
VH: QVQLVESGGGLIQPGGSLRLSCAASEFIVSSNYMSWVRQAPGKGLEWVSLLYSGGTTYYADSVKGRFTISRDNSKNTLFLQMNSLRAEDTAMYYCARDRGPWLHDYWGQGTLVTVS
VL: DIVMTQSPSSLSASVGDRVTITCQASQDINKYCNWYQQKPGKAPKLLIYDASNLETGVPSRFSGSGSGTDFTFTINSLQPEDIATYYCQQYDNLPPTFGGGTKVEIK

Target: SARS-CoV-2 D614G spike (SARS-CoV-2, UniProt P0DTC2 14-1208)
Assay: SPR

Binder	Kd [nM]
B1	0.043
B2	0.161
